For orientation: stoichiometry N means the number of molecules, sites or subunits per partner or assembly.

The values below come from paper PMC9638971.

The target of assay [1] is fluorescein-5-maleimide-labelled wild-type lipase A (P. aeruginosa PAO1) (UniProt P26876).
Assay [2] addresses lipase A (LipA) from Pseudomonas aeruginosa PAO1, wild type (P. aeruginosa PAO1) (UniProt P26876).
Assay [3] addresses periplasmic chaperone FkpA of P. aeruginosa (P. aeruginosa PAO1). Description: SEC-MALS; isolated chaperones at 2 mg/ml, Superdex 200 Increase 10/300 GL; FkpA, SurA and PpiD in 50 mM KCl, 5 mM MgCl2, 20 mM HEPES-KOH pH 7.4; YfgM in 5 mM glycine, 20 mM NaCl, 5 mM Tris-HCl pH 8.5; Skp in 100 mM NaCl, 20 mM Tris-HCl pH 8.0; LipH in 100 mM NaCl, 200 µM TCEP, 50 mM Tris-HCl pH 8.0. For orientation: Size exclusion chromatography separates by hydrodynamic size, large species first.

Assay [4] concerns the target fluorescein-5-maleimide-labelled wild-type lipase A (P. aeruginosa PAO1) (UniProt P26876). This is another data set of the same source.
Assay [5] concerns the target lipase A mutant LipA_(F144E) (P. aeruginosa PAO1) (UniProt P26876). Description: SEC-MALS; LipA_(F144E):Skp mixture (molar ratio 1:3) compared with Skp3 alone; SDS-PAGE and densitometry of the peak fractions.
Assay [6] concerns the target periplasmic chaperone Skp of P. aeruginosa (P. aeruginosa PAO1). The experiment in a line: SEC-MALS; isolated chaperones at 2 mg/ml, Superdex 200 Increase 10/300 GL; FkpA, SurA and PpiD in 50 mM KCl, 5 mM MgCl2, 20 mM HEPES-KOH pH 7.4; YfgM in 5 mM glycine, 20 mM NaCl, 5 mM Tris-HCl pH 8.5; Skp in 100 mM NaCl, 20 mM Tris-HCl pH 8.0; LipH in 100 mM NaCl, 200 µM TCEP, 50 mM Tris-HCl pH 8.0.

The target in assay [7] is lipase A (LipA) from Pseudomonas aeruginosa PAO1, wild type (P. aeruginosa PAO1) (UniProt P26876). This is another data set of the same source.
The target of assay [8] is periplasmic chaperone Skp of P. aeruginosa (P. aeruginosa PAO1). Description: SAXS; Skp at 1.20 mg/ml, 15 °C; ab initio reconstitution with P3 symmetry (GASBOR).
Assay [9] concerns the target fluorescein-5-maleimide-labelled lipase A mutant LipA_(F144E) (P. aeruginosa PAO1) (UniProt P26876). The experiment in a line: MST; FM-labelled LipA_(F144E) kept constant, Skp titrated (monomer concentrations); TGCG buffer with 0.05% Tween 20; 15 min at 22°C; Monolith NT.115.

With “lipase-specific foldase LipH lacking the TMD (domain or fragment)”, the soluble fraction of LipA in the sedimentation assay, 150 mM NaCl, LipA:LipH molar ratio 1:1 in assay [1] was over 80%. Moreover, the inhibition of pNPB hydrolysis by wild-type LipA with LipH and Skp3 added simultaneously (LipA:LipH:chaperone 1:1:5, 50 mM NaCl) in assay [2] is under 10%.
In assay [3], “periplasmic chaperone FkpA of P. aeruginosa (natural protein)” returned a stoichiometry N of 2.
On to “periplasmic chaperone Skp of P. aeruginosa (natural protein)”, for which the soluble fraction of LipA in the sedimentation assay, 150 mM NaCl, 0.5 µM LipA and 5 µM Skp3 in [1] was 66%. For the same substance, the soluble fraction of LipA in the sedimentation assay at LipA:Skp3 molar ratios 1:10, 1:3 and 1:1; value at 1:10 and 1:3, dropped dramatically at 1:1 in [4] was over 70%. Besides, in [5], the LipA:Skp3 ratio by densitometry of the peak fractions (Skp3 per LipA) was found to be 3 and the stoichiometry N (Skp3 per LipA) came to 2. Besides, the stoichiometry N in assay [6] came out at 3. Besides, the decrease in ThT fluorescence of LipA aggregates in the presence of Skp3 (0.5 µM LipA, 5 µM Skp3) in assay [7] stood at 75%. In [8], this substance showed a stoichiometry N of 3. Also, in assay [9], the KD of the first (high-affinity) binding mode amounted to 20 nM and the KD of the second (low-affinity) binding mode came to 2000 nM.
